Assay results from patent US20250262210A1 (TRUSTEES OF COLUMBIA UNIVERSITY IN THE CITY OF NEW YORK, published 2025).

What was measured:
Experiment in all cases: IP/MS, LZTR1 wild type-FLAG, U87
TRIM16 = TRIM16 (human, UniProt O95361 1-564, limits assumed)
Method in brief: (§1)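 Gel slices were reduced with 5 mM DTT, alkylated with 11 mM IAA and digested overnight at 37° C. with trypsin. Peptides were analysed on an Orbitrap Fusion Tribrid by LC-MS/MS.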

RALGAPB = target: T1, RALGAPB (human, UniProt Q86X10 1-1494, limits assumed)
T1 sequence (looked up): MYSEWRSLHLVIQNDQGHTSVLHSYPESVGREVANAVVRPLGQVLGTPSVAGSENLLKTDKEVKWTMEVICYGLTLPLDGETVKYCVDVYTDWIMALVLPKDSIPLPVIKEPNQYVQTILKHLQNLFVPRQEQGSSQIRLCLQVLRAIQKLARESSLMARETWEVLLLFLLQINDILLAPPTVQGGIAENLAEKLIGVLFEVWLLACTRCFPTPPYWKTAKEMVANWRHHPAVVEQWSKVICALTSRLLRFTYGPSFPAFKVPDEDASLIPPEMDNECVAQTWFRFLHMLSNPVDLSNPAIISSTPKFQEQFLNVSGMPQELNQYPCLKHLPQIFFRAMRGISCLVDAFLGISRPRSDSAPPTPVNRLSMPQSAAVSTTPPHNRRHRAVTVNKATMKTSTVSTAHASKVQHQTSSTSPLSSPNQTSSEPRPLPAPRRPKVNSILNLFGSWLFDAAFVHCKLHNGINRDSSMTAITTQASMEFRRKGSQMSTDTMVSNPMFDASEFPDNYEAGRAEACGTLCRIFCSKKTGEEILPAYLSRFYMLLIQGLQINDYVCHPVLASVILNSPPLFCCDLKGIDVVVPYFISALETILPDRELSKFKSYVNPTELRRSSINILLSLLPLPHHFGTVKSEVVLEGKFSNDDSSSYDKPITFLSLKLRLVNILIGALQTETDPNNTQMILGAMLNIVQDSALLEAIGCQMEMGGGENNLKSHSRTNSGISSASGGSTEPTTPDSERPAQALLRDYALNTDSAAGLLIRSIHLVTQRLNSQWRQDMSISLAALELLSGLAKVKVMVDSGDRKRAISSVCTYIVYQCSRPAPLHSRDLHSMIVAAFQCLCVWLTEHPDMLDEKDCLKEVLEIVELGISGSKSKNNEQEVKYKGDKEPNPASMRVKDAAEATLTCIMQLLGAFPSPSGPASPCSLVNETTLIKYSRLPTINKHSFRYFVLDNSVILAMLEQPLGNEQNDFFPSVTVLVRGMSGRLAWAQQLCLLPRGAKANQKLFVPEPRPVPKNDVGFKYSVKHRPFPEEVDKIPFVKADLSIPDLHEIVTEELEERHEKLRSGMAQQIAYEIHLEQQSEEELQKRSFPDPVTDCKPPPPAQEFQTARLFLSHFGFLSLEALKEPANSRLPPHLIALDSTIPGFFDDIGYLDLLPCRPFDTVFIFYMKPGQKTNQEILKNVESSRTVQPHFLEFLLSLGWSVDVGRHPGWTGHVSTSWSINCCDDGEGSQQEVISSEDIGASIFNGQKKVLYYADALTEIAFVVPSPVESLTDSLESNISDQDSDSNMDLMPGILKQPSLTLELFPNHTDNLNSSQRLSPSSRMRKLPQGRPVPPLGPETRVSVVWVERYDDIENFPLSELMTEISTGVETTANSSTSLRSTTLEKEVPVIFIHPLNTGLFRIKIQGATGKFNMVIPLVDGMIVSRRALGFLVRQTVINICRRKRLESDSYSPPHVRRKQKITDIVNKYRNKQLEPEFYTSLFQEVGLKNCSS
Method in brief: as §1

URB1 = URB1 (human, UniProt O60287 1-2271)
URB1, sequence (O60287 whole entry): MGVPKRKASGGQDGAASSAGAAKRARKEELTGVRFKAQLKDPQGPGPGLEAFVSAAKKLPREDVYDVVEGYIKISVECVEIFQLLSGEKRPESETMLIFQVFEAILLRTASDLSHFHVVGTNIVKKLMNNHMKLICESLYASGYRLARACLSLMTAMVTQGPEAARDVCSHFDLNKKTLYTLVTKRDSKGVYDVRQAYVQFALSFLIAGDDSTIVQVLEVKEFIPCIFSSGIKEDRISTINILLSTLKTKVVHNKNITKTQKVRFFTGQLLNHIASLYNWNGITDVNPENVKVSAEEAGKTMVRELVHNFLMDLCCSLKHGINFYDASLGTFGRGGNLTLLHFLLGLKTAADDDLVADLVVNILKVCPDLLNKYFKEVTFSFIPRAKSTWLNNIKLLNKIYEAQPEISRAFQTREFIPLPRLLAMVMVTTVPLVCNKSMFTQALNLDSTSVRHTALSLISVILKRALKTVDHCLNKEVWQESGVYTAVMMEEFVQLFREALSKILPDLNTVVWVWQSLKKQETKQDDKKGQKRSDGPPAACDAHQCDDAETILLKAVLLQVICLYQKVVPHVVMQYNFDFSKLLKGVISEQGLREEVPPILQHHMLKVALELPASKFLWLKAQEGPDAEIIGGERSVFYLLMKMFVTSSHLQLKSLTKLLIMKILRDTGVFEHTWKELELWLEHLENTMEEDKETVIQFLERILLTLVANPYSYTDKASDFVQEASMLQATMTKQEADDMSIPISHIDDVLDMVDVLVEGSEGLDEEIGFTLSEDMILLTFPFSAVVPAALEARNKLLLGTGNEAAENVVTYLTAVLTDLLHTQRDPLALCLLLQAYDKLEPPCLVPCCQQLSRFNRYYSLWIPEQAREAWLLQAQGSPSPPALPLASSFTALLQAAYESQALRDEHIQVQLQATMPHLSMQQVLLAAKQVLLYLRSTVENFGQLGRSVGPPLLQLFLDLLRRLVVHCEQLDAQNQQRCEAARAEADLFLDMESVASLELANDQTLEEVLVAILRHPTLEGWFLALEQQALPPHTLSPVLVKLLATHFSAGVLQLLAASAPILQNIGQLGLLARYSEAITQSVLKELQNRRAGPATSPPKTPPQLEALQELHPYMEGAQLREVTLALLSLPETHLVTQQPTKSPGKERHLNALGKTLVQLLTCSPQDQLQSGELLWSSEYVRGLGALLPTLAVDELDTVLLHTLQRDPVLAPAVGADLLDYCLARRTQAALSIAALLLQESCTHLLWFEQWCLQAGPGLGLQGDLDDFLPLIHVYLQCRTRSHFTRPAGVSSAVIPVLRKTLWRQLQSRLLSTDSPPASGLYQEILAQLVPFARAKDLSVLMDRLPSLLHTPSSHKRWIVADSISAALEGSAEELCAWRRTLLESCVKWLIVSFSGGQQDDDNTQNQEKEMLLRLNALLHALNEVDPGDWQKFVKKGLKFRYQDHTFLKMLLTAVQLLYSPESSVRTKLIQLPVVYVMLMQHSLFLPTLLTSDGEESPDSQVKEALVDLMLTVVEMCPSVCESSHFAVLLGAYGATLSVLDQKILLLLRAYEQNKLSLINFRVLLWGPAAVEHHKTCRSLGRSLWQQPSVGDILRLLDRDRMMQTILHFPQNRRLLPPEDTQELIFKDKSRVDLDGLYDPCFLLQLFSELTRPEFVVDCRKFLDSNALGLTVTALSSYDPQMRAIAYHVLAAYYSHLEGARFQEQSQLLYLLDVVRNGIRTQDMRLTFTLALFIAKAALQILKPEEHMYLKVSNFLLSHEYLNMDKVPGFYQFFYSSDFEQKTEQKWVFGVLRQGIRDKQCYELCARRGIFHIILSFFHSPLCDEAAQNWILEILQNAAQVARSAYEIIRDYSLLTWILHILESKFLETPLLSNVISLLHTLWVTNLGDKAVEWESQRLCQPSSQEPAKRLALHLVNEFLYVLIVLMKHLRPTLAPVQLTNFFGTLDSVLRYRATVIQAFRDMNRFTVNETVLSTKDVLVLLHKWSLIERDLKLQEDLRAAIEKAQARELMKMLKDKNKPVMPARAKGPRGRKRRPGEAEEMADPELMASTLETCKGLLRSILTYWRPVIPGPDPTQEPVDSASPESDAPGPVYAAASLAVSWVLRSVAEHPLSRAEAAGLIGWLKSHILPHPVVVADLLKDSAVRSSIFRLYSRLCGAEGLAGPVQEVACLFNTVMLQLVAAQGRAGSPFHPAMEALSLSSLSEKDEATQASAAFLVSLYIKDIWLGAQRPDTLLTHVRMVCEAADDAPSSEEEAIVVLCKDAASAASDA
Method in brief: as §1

binding result (TRIM16): binds | binding result (RALGAPB): binds | binding result (URB1): binds
B1: LZTR1-FLAG (other, human, UniProt Q8N653 1-840, looked up)
chain: MAGPGSTGGQIGAAALAGGARSKVAPSVDFDHSCSDSVEYLTLNFGPFETVHRWRRLPPCDEFVGARRSKHTVVAYKDAIYVFGGDNGKTMLNDLLRFDVKDCSWCRAFTTGTPPAPRYHHSAVVYGSSMFVFGGYTGDIYSNSNLKNKNDLFEYKFATGQWTEWKIEGRLPVARSAHGATVYSDKLWIFAGYDGNARLNDMWTIGLQDRELTCWEEVAQSGEIPPSCCNFPVAVCRDKMFVFSGQSGAKITNNLFQFEFKDKTWTRIPTEHLLRGSPPPPQRRYGHTMVAFDRHLYVFGGAADNTLPNELHCYDVDFQTWEVVQPSSDSEVGGAEVPERACASEEVPTLTYEERVGFKKSRDVFGLDFGTTSAKQPTQPASELPSGRLFHAAAVISDAMYIFGGTVDNNIRSGEMYRFQFSCYPKCTLHEDYGRLWESRQFCDVEFVLGEKEECVQGHVAIVTARSRWLRRKITQARERLAQKLEQEAAPVPREAPGVAAGGARPPLLHVAIREAEARPFEVLMQFLYTDKIKYPRKGHVEDVLLIMDVYKLALSFQLCRLEQLCRQYIEASVDLQNVLVVCESAARLQLSQLKEHCLNFVVKESHFNQVIMMKEFERLSSPLIVEIVRRKQQPPPRTPLDQPVDIGTSLIQDMKAYLEGAGAEFCDITLLLDGHPRPAHKAILAARSSYFEAMFRSFMPEDGQVNISIGEMVPSRQAFESMLRYIYYGEVNMPPEDSLYLFAAPYYYGFYNNRLQAYCKQNLEMNVTVQNVLQILEAADKTQALDMKRHCLHIIVHQFTKVSKLPTLRSLSQQLLLDIIDSLASHISDKQCAELGADI
notes: Expressed in HEK 293T, HeLa or U87 cells; used as cell lysate; also called LZTR1 wild type-FLAG; LZTR1 WT; not shown: FLAG tag at the C-terminus
